This is an account of results in the Immune Epitope Database (IEDB).

Holding throughout (test): IEDB peptide-MHC binding, purified MHC/competitive/radioactivity; filed as Kd, often an IC50 or EC50 that approximates it; ≥ and ≤ were set here for values at or beyond the usual limits of such assays
In assay [1] the target is HLA-A*68:01.
In assay [2] the target is HLA-A*11:01.
The target of assay [3] is HLA-A*31:01.
Assay [4] has as its target HLA-A*03:01.
In assay [5] the target is HLA-A*33:01.
Setting [6] is: source organism: Vaccinia virus WR.
[7] abbreviates: source organism: SARS coronavirus Tor2.
Setting [8] is: source organism: Mammarenavirus whitewaterense.
Where [9] appears, read: source organism: Mammarenavirus juninense.
Setting [10] is: source organism: Mammarenavirus guanaritoense.
Where [11] appears, read: source organism: Mammarenavirus brazilense.

MMNRDKIPIY: the Kd – broadly, the constant that tells how readily two partners part at equilibrium – was at least 70.2 µM in assay [1] (setting [6]); 3800 nM in assay [2] (setting [6]); 10.4 µM in assay [3] (setting [6]); 1.03 µM in assay [4] (setting [6]); at least 70 µM in assay [5] (setting [6]).
On the same counts, the results for NTMCTEETKR are 0.0178 µM, 6410 nM, 13.3 µM, at least 32.2 µM and 4.21 µM.
With AINSVPWSK, the equilibrium dissociation constant (Kd) in assay [1] (setting [7]) was 1.78 µM; in assay [2] (setting [7]) it was 1.85 nM; in assay [3] (setting [7]), 1.18 µM; in assay [4] (setting [7]), 0.013 µM; in assay [5] (setting [7]) it was 10.8 µM.
With SCSYKIGHH, the Kd in assay [1] (setting [8]) is at least 77.6 µM; in assay [2] (setting [8]), at least 64800 nM; in assay [3] (setting [8]) it was at least 45.8 µM; in assay [4] (setting [8]), at least 78 µM; in assay [5] (setting [8]), at least 77.7 µM.
Regarding LLGDSDSVAK, the Kd in assay [1] (setting [6]) is 10.9 µM; in assay [2] (setting [6]), 584 nM; in assay [3] (setting [6]), 3.58 µM; in assay [4] (setting [6]), 0.203 µM; in assay [5] (setting [6]), at least 70 µM.
For VCFHEFLSSK, the Kd in assay [1] (setting [9]) was 14.4 µM; in assay [2] (setting [9]), 4500 nM; in assay [3] (setting [9]) it was 1.53 µM; in assay [4] (setting [9]) it was 3.47 µM; in assay [5] (setting [9]) it was at least 70 µM.
For VSAKQLRTR, the Kd in assay [1] (setting [6]) amounted to 1.05 µM; in assay [2] (setting [6]), 2730 nM; in assay [3] (setting [6]), 0.286 µM; in assay [4] (setting [6]) it was 12.7 µM; in assay [5] (setting [6]), 13.4 µM.
In the case of LTALLSCIR, the Kd was 0.00766 µM in assay [1] (setting [6]); 914 nM in assay [2] (setting [6]); 0.244 µM in assay [3] (setting [6]); at least 78 µM in assay [4] (setting [6]); 1.1 µM in assay [5] (setting [6]).
Consider SVKTQFNYFK, for which the Kd in assay [1] (setting [7]) is 0.08 µM; in assay [2] (setting [7]), 21.1 nM; in assay [3] (setting [7]) it was 0.0241 µM; in assay [4] (setting [7]), 0.144 µM; in assay [5] (setting [7]) it was 0.808 µM.
Turning to TILEYLYIMR, the Kd in assay [1] (setting [6]) worked out at 0.167 µM; in assay [2] (setting [6]) it was 2060 nM; in assay [3] (setting [6]), 0.987 µM; in assay [4] (setting [6]), 8.99 µM; in assay [5] (setting [6]) it was 2.3 µM.
On the same counts, the results for TIQRFSSLR are 0.00486 µM, 8.93 nM, 0.00055 µM, 5.21 µM and 0.00554 µM.
Turning to SAGFSLWIYK, the Kd in assay [1] (setting [7]) worked out at 0.0311 µM; in assay [2] (setting [7]) it was 0.0935 nM; in assay [3] (setting [7]) it was 0.0521 µM; in assay [4] (setting [7]), 0.0753 µM; in assay [5] (setting [7]), 3.43 µM.
TSRTLSYYK: the Kd stood at 0.84 µM in assay [1] (setting [7]); 160 nM in assay [2] (setting [7]); 0.179 µM in assay [3] (setting [7]); 0.45 µM in assay [4] (setting [7]); 2.4 µM in assay [5] (setting [7]).
SVPLPCQLMY: the Kd was 14.4 µM in assay [1] (setting [6]); 38 nM in assay [2] (setting [6]); at least 23.2 µM in assay [3] (setting [6]); 0.413 µM in assay [4] (setting [6]); at least 53.1 µM in assay [5] (setting [6]).
On the same counts, the results for SMDVLAEKK are 1.27 µM, 25.7 nM, at least 22.6 µM, 0.911 µM and at least 77.7 µM.
As for VVNARLRAK, the Kd in assay [1] (setting [7]) is 8.18 µM; in assay [2] (setting [7]), 130 nM; in assay [3] (setting [7]), 0.199 µM; in assay [4] (setting [7]), 0.0138 µM; in assay [5] (setting [7]) it was at least 24.9 µM.
On to MSMGDIITY, for which the Kd in assay [1] (setting [6]) was 0.00185 µM; in assay [2] (setting [6]), 5.67 nM; in assay [3] (setting [6]) it was 8.57 µM; in assay [4] (setting [6]), 0.134 µM; in assay [5] (setting [6]), 13.3 µM.
On the same counts, the results for NVKKKNEGK are 0.142 µM, at least 29700 nM, at least 20.4 µM, 6.52 µM and 17.6 µM.
In the case of NYVHCFRKPH, the Kd is at least 70.1 µM in assay [1] (setting [10]); at least 69700 nM in assay [2] (setting [10]); 12 µM in assay [3] (setting [10]); at least 70 µM in assay [4] (setting [10]); 1.43 µM in assay [5] (setting [10]).
For the sequence GSFCTQLNR, the Kd in assay [1] (setting [7]) is 0.229 µM; in assay [2] (setting [7]) it was 76.1 nM; in assay [3] (setting [7]), 0.0511 µM; in assay [4] (setting [7]), 1.04 µM; in assay [5] (setting [7]), at least 33.1 µM.
Turning to TAIAKCNLDH, the Kd in assay [1] (setting [8]) was 7.07 µM; in assay [2] (setting [8]) it was at least 69700 nM; in assay [3] (setting [8]), 0.929 µM; in assay [4] (setting [8]), at least 70 µM; in assay [5] (setting [8]) it was at least 34.2 µM.
On the same counts, the results for KIGHHVELQH are at least 70.1 µM, at least 69700 nM, 0.0252 µM, at least 47.1 µM and at least 49.8 µM.
For FMEMFFDYNK, the Kd was determined as 0.231 µM in assay [1] (setting [6]); 88 nM in assay [2] (setting [6]); 0.72 µM in assay [3] (setting [6]); 0.552 µM in assay [4] (setting [6]); 2.24 µM in assay [5] (setting [6]).
On the same counts, the results for RLGLVLDDY are at least 44.5 µM, 3560 nM, at least 77.9 µM, 0.0111 µM and at least 77.7 µM.
With NLDPDNKMSY, the Kd is 1.46 µM in assay [1] (setting [6]); 582 nM in assay [2] (setting [6]); at least 41.3 µM in assay [3] (setting [6]); 0.95 µM in assay [4] (setting [6]); at least 65.8 µM in assay [5] (setting [6]).
As to NISIIVLFQR, the dissociation constant (Kd) in assay [1] (setting [6]) is 0.00384 µM; in assay [2] (setting [6]), 670 nM; in assay [3] (setting [6]) it was 0.0336 µM; in assay [4] (setting [6]), 0.907 µM; in assay [5] (setting [6]) it was 1.4 µM.
For the sequence KCFGNTAVAK, the dissociation constant (Kd) in assay [1] (setting [9]) was found to be 18.8 µM; in assay [2] (setting [9]), 6460 nM; in assay [3] (setting [9]), 0.181 µM; in assay [4] (setting [9]), 0.579 µM; in assay [5] (setting [9]), 1.47 µM.
As for IVTSLAIKNY, the Kd in assay [1] (setting [6]) was found to be 1.41 µM; in assay [2] (setting [6]), 51.7 nM; in assay [3] (setting [6]), 8.82 µM; in assay [4] (setting [6]), 1.11 µM; in assay [5] (setting [6]), 5.68 µM.
Consider GLLATNNVFR, for which the Kd was 0.794 µM in assay [1] (setting [7]); 816 nM in assay [2] (setting [7]); 0.487 µM in assay [3] (setting [7]); 0.428 µM in assay [4] (setting [7]); 5.92 µM in assay [5] (setting [7]).
In the case of EVFGSTGDY, the Kd was 0.0142 µM in assay [1] (setting [6]); 13.1 nM in assay [2] (setting [6]); at least 77.9 µM in assay [3] (setting [6]); 3.14 µM in assay [4] (setting [6]); at least 77.7 µM in assay [5] (setting [6]).
For the sequence MMFINSTCY, the Kd in assay [1] (setting [6]) is 0.145 µM; in assay [2] (setting [6]), 159 nM; in assay [3] (setting [6]), 0.129 µM; in assay [4] (setting [6]), 0.0212 µM; in assay [5] (setting [6]), 3.93 µM.
On the same counts, the results for YIYKSGKLVK are 0.539 µM, 36 nM, 7.8 µM, 0.00774 µM and 7.86 µM.
For the sequence KVSAQNISFK, the Kd in assay [1] (setting [6]) stood at 3.38 µM; in assay [2] (setting [6]) it was 131 nM; in assay [3] (setting [6]) it was 0.433 µM; in assay [4] (setting [6]), 5.07 µM; in assay [5] (setting [6]) it was 3.32 µM.
Regarding KCFGNTALAK, the Kd is at least 22.5 µM in assay [1] (setting [11]); 8480 nM in assay [2] (setting [11]); 0.972 µM in assay [3] (setting [11]); 0.83 µM in assay [4] (setting [11]); at least 70 µM in assay [5] (setting [11]).
Consider FVDINRNNK, for which the Kd is 0.0251 µM in assay [1] (setting [6]); 50.8 nM in assay [2] (setting [6]); 2.3 µM in assay [3] (setting [6]); 0.281 µM in assay [4] (setting [6]); at least 46.8 µM in assay [5] (setting [6]).
On the same counts, the results for NIVTFINDY are 0.535 µM, at least 45900 nM, 14.6 µM, at least 78 µM and at least 77.7 µM.
As to ELVTRKCPQK, the Kd in assay [1] (setting [6]) is 1.4 µM; in assay [2] (setting [6]) it was 513 nM; in assay [3] (setting [6]), at least 70 µM; in assay [4] (setting [6]), 7.42 µM; in assay [5] (setting [6]) it was at least 32 µM.
On the same counts, the results for TISSESLVY are 0.619 µM, 10.7 nM, 10.2 µM, 0.021 µM and 5.45 µM.
On the same counts, the results for DSLLITNTK are 0.0371 µM, 661 nM, 18.6 µM, 2.71 µM and 0.00516 µM.
On the same counts, the results for ITLKIIETY are at least 77.7 µM, at least 77900 nM, 0.751 µM, at least 78 µM and at least 77.7 µM.
Regarding VTGFMEEEIK, the Kd was 1.22 µM in assay [1] (setting [6]); 7.06 nM in assay [2] (setting [6]); 10.7 µM in assay [3] (setting [6]); 13.3 µM in assay [4] (setting [6]); at least 33.9 µM in assay [5] (setting [6]).
Turning to EMYPRHRYSK, the Kd in assay [1] (setting [6]) came out at 0.0278 µM; in assay [2] (setting [6]), 1110 nM; in assay [3] (setting [6]) it was 1.15 µM; in assay [4] (setting [6]), 0.126 µM; in assay [5] (setting [6]) it was 0.326 µM.
On the same counts, the results for QFANVISKIY are 1.95 µM, 8660 nM, 1.14 µM, 3.39 µM and 1.2 µM.
On the same counts, the results for WSRIGTAATK are 0.786 µM, 1070 nM, at least 28.9 µM, 0.101 µM and at least 70 µM.
On the same counts, the results for WLHECTDESR are 0.273 µM, at least 69800 nM, 6.23 µM, at least 70.1 µM and 0.254 µM.
With IIKSDHEFVK, the Kd in assay [1] (setting [6]) was 1.82 µM; in assay [2] (setting [6]), 443 nM; in assay [3] (setting [6]), 15.7 µM; in assay [4] (setting [6]), 4.27 µM; in assay [5] (setting [6]), at least 70 µM.
For the sequence ETFKIDAVR, the Kd is 0.00161 µM in assay [1] (setting [6]); 2730 nM in assay [2] (setting [6]); 0.107 µM in assay [3] (setting [6]); at least 28.7 µM in assay [4] (setting [6]); 0.0207 µM in assay [5] (setting [6]).
